The values below come from PMC5500810, “Identification and characterization of Nanobodies targeting the EphA4 receptor” (The Journal of Biological Chemistry, 2017).

Assay [1] addresses T1, mouse recombinant EphA3 (Fc-tagged; R&D Systems) (mouse, UniProt P29319).
T1 construct: EphA3, mouse, recombinant, Fc-tagged; source: bought: R&D Systems
The assay can be described thus: AlphaScreen or HTRF; biotinylated Nbs (100 nM) with subhooking concentrations (10-100 nM) of mouse Fc-tagged Eph receptors; anti-IgG AlphaLISA acceptor and streptavidin donor beads; 50 mM Hepes, 100 mM NaCl, 0.1% Triton, 0.1% BSA; room temperature. The note with it: both partners purified.

The target in assay [2] is T2, mouse recombinant EphA7 (Fc-tagged; R&D Systems) (mouse, UniProt Q61772).
T2 construct: EphA7, mouse, recombinant, Fc-tagged; source: bought: R&D Systems
T2 sequence (Q61772 28-555): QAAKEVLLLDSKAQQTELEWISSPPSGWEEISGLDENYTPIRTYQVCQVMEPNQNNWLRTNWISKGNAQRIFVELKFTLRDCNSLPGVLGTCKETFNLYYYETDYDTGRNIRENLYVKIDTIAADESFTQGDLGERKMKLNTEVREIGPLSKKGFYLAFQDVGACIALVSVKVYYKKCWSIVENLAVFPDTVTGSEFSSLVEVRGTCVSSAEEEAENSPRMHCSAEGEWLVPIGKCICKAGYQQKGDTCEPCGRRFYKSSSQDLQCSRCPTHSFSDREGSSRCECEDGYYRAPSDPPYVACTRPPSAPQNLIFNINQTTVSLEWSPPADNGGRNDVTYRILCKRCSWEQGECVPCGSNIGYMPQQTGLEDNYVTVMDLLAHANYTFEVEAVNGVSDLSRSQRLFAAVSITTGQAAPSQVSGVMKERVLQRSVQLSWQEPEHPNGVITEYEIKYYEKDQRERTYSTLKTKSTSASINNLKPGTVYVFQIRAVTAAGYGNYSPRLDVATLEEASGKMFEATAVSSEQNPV
The description is as above. Particulars: both partners purified.

The target of assay [3] is T3, EphA4 ligand-binding domain (human, amino acids 22-203) (human, UniProt P54764, biotin on primary amines (EZ link NHS biotin) in the AlphaScreen assays only).
T3 construct: cloned from the EphA4 Human cDNA ORF clone (Origene); His6 tag removed with murine caspase-3; Amine-coupled to the chip in SPR; biotinylated in AlphaScreen; also called EphA4 LBD; hEphA4 LBD; source: E. coli BL21 codon+ pICA2, purified (Ni-Sepharose, Source 15Q, Superdex 75); not shown: His6, N-terminal, cleaved
T3 sequence (P54764 22-203): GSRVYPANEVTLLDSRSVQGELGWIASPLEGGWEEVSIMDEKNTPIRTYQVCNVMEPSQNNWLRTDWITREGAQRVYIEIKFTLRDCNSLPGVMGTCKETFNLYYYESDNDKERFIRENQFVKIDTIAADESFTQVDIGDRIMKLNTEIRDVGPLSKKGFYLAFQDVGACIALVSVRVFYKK
The assay can be described thus: SPR; Biacore T200; EphA4 LBD amine-coupled to CM5 chip (300 RU); Nbs (1-300 nM) as analyte, 60 μl/min; 10 mM Hepes, 150 mM NaCl, 3 mM EDTA, 0.01 mM Surfactant P-20, pH 7.35; two-state model. The note with it: both partners purified. (In general: Surface plasmon resonance follows binding to a sensor surface in real time, without labels.)

Assay [4] concerns the target T4, mouse EphA4-Fc (R&D Systems) (mouse, UniProt Q03137).
T4 construct: EphA4, mouse; the results call it 'full-length recombinant' receptor, the methods an EphA4-hFc fusion protein from R&D Systems; also called mEphA4-Fc; EphA4-hFc (mouse); source: bought: R&D Systems
As to the kind of experiment: co-IP; 2.5 μg recombinant mouse or human EphA4 protein (or recombinant ephrin-B2 as negative control) on protein G magnetic Dynabeads, 1 μg Nb overnight at 4 °C, PBS washes; Nb detected with anti-HA. Particulars: both partners purified.

Assay [5] has as its target T5, human EphA4-Fc (R&D Systems) (Homo sapiens, UniProt P54764).
T5 construct: EphA4, human; the results call it 'full-length recombinant' receptor, the methods an EphA4-hFc fusion protein from R&D Systems; also called hEphA4-Fc; EphA4-hFc; source: bought: R&D Systems
As to the kind of experiment: co-IP; Nb on anti-HA magnetic Dynabeads used to capture recombinant EphA4; EphA4 detected with N-terminal anti-EphA4 antibody. The note with it: both partners purified.

The target of assay [6] is T3, EphA4 ligand-binding domain (human, …). The assay can be described thus: cell-based or functional assay.
The target of assay [7] is T4, mouse EphA4-Fc (R&D Systems). As to the kind of experiment: co-IP; Nb on anti-HA magnetic Dynabeads used to capture recombinant EphA4; EphA4 detected with N-terminal anti-EphA4 antibody. Particulars: both partners purified.
The target of assay [8] is T6, human EphA7 (recombinant, EphA7/ephrin-A5 competition assay) (Homo sapiens, UniProt Q15375).
T6 construct: EphA7, human; Probably an Fc chimera of the extracellular domain, since anti-IgG acceptor beads were used
T6 sequence (Q15375 28-998): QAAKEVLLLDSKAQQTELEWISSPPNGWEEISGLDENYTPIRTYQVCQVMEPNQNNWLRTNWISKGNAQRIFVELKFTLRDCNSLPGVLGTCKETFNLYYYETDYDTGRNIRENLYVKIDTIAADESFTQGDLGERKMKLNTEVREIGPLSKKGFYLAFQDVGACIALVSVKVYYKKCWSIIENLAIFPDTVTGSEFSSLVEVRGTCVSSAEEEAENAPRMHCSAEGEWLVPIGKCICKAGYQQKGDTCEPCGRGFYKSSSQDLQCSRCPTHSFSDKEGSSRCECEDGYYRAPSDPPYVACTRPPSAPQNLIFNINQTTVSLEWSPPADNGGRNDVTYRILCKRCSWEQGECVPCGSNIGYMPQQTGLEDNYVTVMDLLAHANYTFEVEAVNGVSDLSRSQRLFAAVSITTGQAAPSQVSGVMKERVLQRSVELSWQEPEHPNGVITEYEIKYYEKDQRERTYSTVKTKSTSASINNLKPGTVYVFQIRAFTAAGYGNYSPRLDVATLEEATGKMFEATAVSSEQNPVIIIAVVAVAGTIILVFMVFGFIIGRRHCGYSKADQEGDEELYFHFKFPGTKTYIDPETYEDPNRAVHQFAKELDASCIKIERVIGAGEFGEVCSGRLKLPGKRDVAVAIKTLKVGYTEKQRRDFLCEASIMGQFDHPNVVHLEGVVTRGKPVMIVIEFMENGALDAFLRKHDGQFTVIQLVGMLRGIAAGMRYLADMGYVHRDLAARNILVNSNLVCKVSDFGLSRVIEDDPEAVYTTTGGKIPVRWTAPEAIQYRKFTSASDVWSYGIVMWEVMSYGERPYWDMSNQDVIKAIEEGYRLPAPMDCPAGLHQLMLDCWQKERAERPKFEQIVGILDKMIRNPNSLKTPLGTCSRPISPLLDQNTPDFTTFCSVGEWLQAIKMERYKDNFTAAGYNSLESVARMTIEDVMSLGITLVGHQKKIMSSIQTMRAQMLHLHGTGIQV
The assay can be described thus: AlphaScreen or HTRF; competition: human EphA7 (3 nM) preincubated 1 h with increasing Nb, then biotinylated His-tagged human ephrin-A5 (30 nM); anti-IgG acceptor and streptavidin donor beads; 50 mM Hepes, 100 mM NaCl, 0.1% Triton, 0.1% BSA. Particulars: both partners purified.

Assay [9] deals with T3, EphA4 ligand-binding domain (human, …).
Assay [10] has as its target T4, mouse EphA4-Fc (R&D Systems). The assay can be described thus: SPR; Biacore T200; EphA4-hFc (human or mouse) captured (~500 RU) on anti-human Fc antibody; Nbs as analyte; 10 mM Hepes, 150 mM NaCl, 3 mM EDTA, 0.01 mM Surfactant P-20, pH 7.35; 1:1 or two-state model. The note with it: both partners purified.
For assay [11], the target named is T5, human EphA4-Fc (R&D Systems). The assay can be described thus: co-IP; 2.5 μg recombinant mouse or human EphA4 protein (or recombinant ephrin-B2 as negative control) on protein G magnetic Dynabeads, 1 μg Nb overnight at 4 °C, PBS washes; Nb detected with anti-HA. Particulars: both partners purified.
For assay [12] the target is unchanged. As to the kind of experiment: SPR; Biacore T200; EphA4-hFc (human or mouse) captured (~500 RU) on anti-human Fc antibody; Nbs as analyte; 10 mM Hepes, 150 mM NaCl, 3 mM EDTA, 0.01 mM Surfactant P-20, pH 7.35; 1:1 or two-state model. Particulars: both partners purified.
Assay [13] deals with T7, ephrin-B2 (Fc-tagged; R&D Systems) (UniProt P52799).
T7 construct: ephrin-B2, recombinant, Fc-tagged (R&D Systems); also called recombinant ephrin-B2; ephrin-B2 ligand; source: bought: R&D Systems
T7 sequence (P52799 28-229): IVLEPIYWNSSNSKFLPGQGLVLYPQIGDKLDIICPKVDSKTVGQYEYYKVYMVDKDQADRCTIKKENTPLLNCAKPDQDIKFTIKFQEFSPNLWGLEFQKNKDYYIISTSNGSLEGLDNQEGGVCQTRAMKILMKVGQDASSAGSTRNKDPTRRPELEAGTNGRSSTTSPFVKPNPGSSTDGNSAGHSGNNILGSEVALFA
As to the kind of experiment: co-IP; 2.5 μg recombinant mouse or human EphA4 protein (or recombinant ephrin-B2 as negative control) on protein G magnetic Dynabeads, 1 μg Nb overnight at 4 °C, PBS washes; Nb detected with anti-HA. The note with it: both partners purified.

In assay [14] the target is T8, mouse recombinant EphA8 (Fc-tagged; R&D Systems) (mouse, UniProt O09127).
T8 construct: EphA8, mouse, recombinant, Fc-tagged; source: bought: R&D Systems
T8 sequence (O09127 27-541): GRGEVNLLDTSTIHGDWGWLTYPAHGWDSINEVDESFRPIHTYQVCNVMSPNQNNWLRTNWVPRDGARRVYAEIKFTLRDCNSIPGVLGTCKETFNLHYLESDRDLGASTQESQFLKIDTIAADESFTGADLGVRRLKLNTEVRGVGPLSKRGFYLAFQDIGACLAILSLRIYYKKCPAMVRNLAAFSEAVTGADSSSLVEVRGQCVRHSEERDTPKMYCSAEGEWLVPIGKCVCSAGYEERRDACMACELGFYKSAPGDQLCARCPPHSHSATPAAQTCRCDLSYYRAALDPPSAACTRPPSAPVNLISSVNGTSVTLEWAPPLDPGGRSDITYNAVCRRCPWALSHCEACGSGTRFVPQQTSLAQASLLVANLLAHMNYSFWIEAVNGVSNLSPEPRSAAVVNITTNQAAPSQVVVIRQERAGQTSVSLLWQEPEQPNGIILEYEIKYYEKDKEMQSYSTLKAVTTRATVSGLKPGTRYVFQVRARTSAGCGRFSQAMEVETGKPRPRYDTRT
As to the kind of experiment: AlphaScreen or HTRF; biotinylated Nbs (100 nM) with subhooking concentrations (10-100 nM) of mouse Fc-tagged Eph receptors; anti-IgG AlphaLISA acceptor and streptavidin donor beads; 50 mM Hepes, 100 mM NaCl, 0.1% Triton, 0.1% BSA; room temperature. Particulars: both partners purified. A general note: Bead proximity is the source of the signal in Alpha formats.

Assay [15] addresses T9, mouse recombinant EphA6 (Fc-tagged; R&D Systems) (mouse, UniProt Q62413).
T9 construct: EphA6, mouse, recombinant, Fc-tagged; source: bought: R&D Systems
The assay is described as above. The note with it: both partners purified.

Changes are numbered by the printed parent chain. Where two headings read alike, the source gives them in different places.

T4 sequence (Q03137 20-547): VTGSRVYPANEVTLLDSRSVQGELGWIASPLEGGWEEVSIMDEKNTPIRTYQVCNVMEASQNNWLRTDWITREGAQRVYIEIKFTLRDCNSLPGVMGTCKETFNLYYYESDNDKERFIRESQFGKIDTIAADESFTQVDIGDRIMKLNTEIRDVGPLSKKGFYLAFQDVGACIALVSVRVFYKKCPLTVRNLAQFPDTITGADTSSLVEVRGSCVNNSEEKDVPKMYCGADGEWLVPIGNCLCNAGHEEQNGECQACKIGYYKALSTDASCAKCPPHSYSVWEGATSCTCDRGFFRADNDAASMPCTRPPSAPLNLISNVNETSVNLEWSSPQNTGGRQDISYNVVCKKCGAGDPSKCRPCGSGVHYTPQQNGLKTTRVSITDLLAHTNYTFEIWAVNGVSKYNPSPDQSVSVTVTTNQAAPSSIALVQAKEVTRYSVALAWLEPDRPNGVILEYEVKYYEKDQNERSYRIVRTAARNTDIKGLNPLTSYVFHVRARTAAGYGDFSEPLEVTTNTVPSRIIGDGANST
T5 sequence (P54764 20-547): as the sequence (Q03137 20-547) above, with A59P, S121N, G124V, Q250R, N251S, S270T, R378K, S406N counted along it
T1 sequence (P29319 21-540): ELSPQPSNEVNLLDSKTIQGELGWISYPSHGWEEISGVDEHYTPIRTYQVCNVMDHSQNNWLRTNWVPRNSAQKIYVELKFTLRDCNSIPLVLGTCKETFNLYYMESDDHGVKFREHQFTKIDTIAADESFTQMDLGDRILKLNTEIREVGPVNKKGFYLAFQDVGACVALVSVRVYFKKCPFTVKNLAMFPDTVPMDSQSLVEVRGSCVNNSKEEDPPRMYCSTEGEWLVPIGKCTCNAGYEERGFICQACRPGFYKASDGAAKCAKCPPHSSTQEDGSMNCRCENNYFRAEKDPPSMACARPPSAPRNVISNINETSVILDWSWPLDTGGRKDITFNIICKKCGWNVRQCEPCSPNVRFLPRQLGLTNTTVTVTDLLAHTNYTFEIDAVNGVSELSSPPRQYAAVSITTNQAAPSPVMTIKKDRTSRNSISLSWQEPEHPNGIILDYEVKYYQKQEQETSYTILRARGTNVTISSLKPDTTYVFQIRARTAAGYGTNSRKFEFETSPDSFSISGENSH
T9 sequence (Q62413 23-549): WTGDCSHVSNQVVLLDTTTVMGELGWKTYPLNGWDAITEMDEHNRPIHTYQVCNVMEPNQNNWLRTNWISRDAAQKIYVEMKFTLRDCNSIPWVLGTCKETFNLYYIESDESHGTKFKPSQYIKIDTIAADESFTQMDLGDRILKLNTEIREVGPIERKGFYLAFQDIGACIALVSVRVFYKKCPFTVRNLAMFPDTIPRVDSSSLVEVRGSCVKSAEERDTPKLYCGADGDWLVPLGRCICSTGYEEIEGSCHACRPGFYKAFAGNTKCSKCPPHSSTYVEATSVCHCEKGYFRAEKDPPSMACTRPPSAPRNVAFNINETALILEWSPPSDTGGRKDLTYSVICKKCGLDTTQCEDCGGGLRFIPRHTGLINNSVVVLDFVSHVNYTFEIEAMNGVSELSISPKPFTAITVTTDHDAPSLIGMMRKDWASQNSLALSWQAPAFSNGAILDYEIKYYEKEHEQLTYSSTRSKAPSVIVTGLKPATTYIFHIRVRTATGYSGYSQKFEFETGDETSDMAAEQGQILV

B1: Nb 57 (VHH)
VHH: QVQLQESGGGLVQPGGSLRLSCAASGFTFSSYYMYWVRQAPGKGLEWVSTINTGGGSTNYADSVKGRFIISRDNAKNTVYLQMNSLKPEDTAVYYCNAFAAGWGPDYWGQGTQVTVSS
notes: Cloned in the phagemid pMECS; Same clonal group as Nb 19; also called Nanobody 57; source: E. coli WK6, periplasmic extract, purified (His GraviTrap, Sephadex G25)
For the molecule B1, the binding result in [1], in assay [2], in [3], in [4] and in assay [5] was “binds” in each case.

B2: Nb 19 (VHH)
VHH: QVQLQESGGGLVQPGGSLRLSCAATGRNFNAYSIAWFRQAPGKEREFVASINWSGSNTYYAVAVKGRFTTSRDNAKNTVYLQMNSLKPEDTAVYYCNAFAAGWGPDYWGQGTQVTVSS
notes: Cloned in the phagemid pMECS; Same clonal group as Nb 57; also called Nanobody 19; source: E. coli WK6, periplasmic extract, purified (His GraviTrap, Sephadex G25)
For the molecule B2, in [3], the binding result is listed as “binds”.

B3: Nb 39 (VHH)
VHH: QVQLQESGGGLVQPGGSLKLSCAASGFTFSTYAMSWVRQAPGKGLEWVSRINSGGGYTWHADSVKGRFTISRDNARNTVYLQMNNLKPEDTAVYYCTNLNTGWRPEYWGQGTQVTVSS
notes: Cloned in the phagemid pMECS; also called Nanobody 39; source: E. coli WK6, periplasmic extract, purified (His GraviTrap, Sephadex G25)
On to B3, for which the “IC50 of inhibition of ephrin-A1-induced EphA4 phosphorylation (PathHunter assay, EphA4-expressing U2OS cells); blocks ephrin-A1 with EphA4” value in assay [6] worked out at 170 nM. For the same molecule, the binding result in [7] and in assay [8] was “binds” throughout.

B4: Nb 16 (VHH)
VHH: QVQLQESGGGLVQPGGSLRLSCAASGFTFSNYAMSWVRQAPGKGLEWVSGINKGGGSAYYSDSVKGRFTISRDNAENTLYLQMNNLKPEDTAVYYCVIPWGLGSNEYDYWGQGTQVTVSS
For the molecule B4, in assay [9], the binding result is on record as “binds”.

B5: Nb 71 (VHH)
VHH: QVQLQESGGGLVQPGGSLRLSCAASGFTFSSYWMYWVRQTPGKGLEWVSGINSPGSITGYADSVKGRFTISRDNAKNTLYLQMNSLKSDDTAVYYCARDLTYGGNSLRYIERGQGTQVTVSS
B5: in assay [9], the binding result is listed as “binds”.

B6: Nb 22 (VHH)
VHH: QVQLQESGGGPVRAGESLRLSCTASGRAFSTYTMGWFRQAPGKERELVAVITPGGNTNYADSVKGRFTISRDDAKNTVYLQMNSLKPVDTAVYYCHVVLAVVGTGNEYDVWGQGTQVTVSS
notes: Cloned in the phagemid pMECS; also called Nanobody 22; source: E. coli WK6, periplasmic extract, purified (His GraviTrap, Sephadex G25)
In the case of B6, the “fold difference in binding affinity between human and mouse EphA4” value in [10] turned out to be 2 fold. Moreover, the binding result in assay [3] and in assay [11] was “binds” in each case.

B7: Nb 34 (VHH)
VHH: QVQLQESGGGLVQAGGSLRLSCAASGFTFSSYAMSWVRQAPGKGLEWVSGINTGGGSTYYADSVKGRFTISRDNAKNTLYLQMNSLKSEDTAVYYCVPRVGVLEGLTSFGSWGQGTQVTVSS
notes: Cloned in the phagemid pMECS; Same clonal group as Nb 47; also called Nanobody 34; source: E. coli WK6, periplasmic extract, purified (His GraviTrap, Sephadex G25)
In the case of B7, the binding result in [3] is recorded as “no binding (tested: 1–300 nM)”.

B8: Nb 47 (VHH)
VHH: B7 VHH with A14P
notes: Cloned in the phagemid pMECS; Same clonal group as Nb 34; also called Nanobody 47; source: E. coli WK6, periplasmic extract, purified (His GraviTrap, Sephadex G25)
B8: the binding result in assay [3] is on record as “no binding (tested: 1–300 nM)”.

B9: Nb 90 (VHH)
VHH: QVQLQESGGGLVQPGGSLRLSCAASGFTFSSHWIYWVRQAPGKQRELVAAITSGGSTNYADSVKGRFTISRDNAKNTVFLQMNSLKPEDTAVYYCNAWGFLLGDIEDYWGQGTQVTVSS
Regarding B9, in assay [9], the binding result is listed as “binds”.

B10: Nb 60 (VHH)
VHH: B9 VHH with S31R, H32Y, S53R, G54N, S56V, R71T, N73D, A74N, F79Y, P87S
notes: Cloned in the phagemid pMECS; Same clonal group as Nb 90; also called Nanobody 60; source: E. coli WK6, periplasmic extract, purified (His GraviTrap, Sephadex G25)
In the case of B10, the binding result in assay [12], in assay [10], in assay [3] and in assay [13] was “binds” throughout.

B11: Nb 28 (VHH)
VHH: QVQLQESGGGLVQAGGSLRLSCAASGFTFSSNWMYWVRQAPGKGLEWVSGINSGGSSTYYSDSVKGRFTISRDNAKNTLYLQMNSLKPEDTAVYYCAKYSGSYYYRRGPGTQVTVSS
As to B11, the binding result in assay [9] is listed as “binds”.

B12: Nb 10 (VHH)
VHH: QVQLQESGGGLVQAGGSLRLSCAASGRTFSSYAMGWFRQAPGTKREMIAAVTKAGTTSYANPVKGRFTISRDDAKNMVYLQMNNLKPEDSAVYYCNAISPLWDEYDFWGPGTQVTVSS
For the molecule B12, the binding result in [9] is recorded as “binds”.

B13: Nb 50 (VHH)
VHH: B12 VHH with S30N, M34E, G35A, T43K, K44E, S58N
notes: Cloned in the phagemid pMECS; Same clonal group as Nb 31, 10 and 53; also called Nanobody 50; source: E. coli WK6, periplasmic extract, purified (His GraviTrap, Sephadex G25)
For the molecule B13, the binding result in assay [14], in assay [15], in assay [1], in assay [2], in assay [3] and in assay [5] was “binds” throughout. Further, in assay [7], the binding result is listed as “binds”.

B14: Nb 53 (VHH)
VHH: B12 VHH with L11V, T28A, K53R, S58N
notes: Cloned in the phagemid pMECS; Same clonal group as Nb 31, 50 and 10; also called Nanobody 53; source: E. coli WK6, periplasmic extract, purified (His GraviTrap, Sephadex G25)
For the molecule B14, the “IC50 of inhibition of ephrin-A1-induced EphA4 phosphorylation (PathHunter assay, EphA4-expressing U2OS cells); blocks ephrin-A1 with EphA4” value in [6] was found to be 261 nM. Besides, the binding result in assay [7] and in assay [8] was “binds” each time.

B15: Nb 31 (VHH)
VHH: B12 VHH with R27F, T28A, F29S, S30D, S31A, M34I, T56A, S58N
notes: Cloned in the phagemid pMECS; Same clonal group as Nb 50, 10 and 53; also called Nanobody 31; source: E. coli WK6, periplasmic extract, purified (His GraviTrap, Sephadex G25)
For B15, the binding result in [3], in assay [11] and in assay [7] was “binds” each time.
